Assay [1] has as its target His-tagged GMAP (truncated form, 1-490 aa). Put plainly: GST-pulldown, quantified band intensity. Particulars: His-GMAP truncated form (aa 1-490); N = 3; parent: est. 3.0 (est. ± 0.7 SD); read off a plot.
For another assay, the target named is GST-tagged Atg8a-WT (UniProt Q9W2S2). Put plainly: GST-pulldown, quantified band intensity. The conditions noted are these: GMAP truncated form (1-490 aa); N = 3; parent: est. 1.6 (est. ± 0.18 SD); read off a plot.

Our source for the response values is article PMC9637997.

UniProt Q9W2S2, sequence (Q9W2S2 entry or part of it): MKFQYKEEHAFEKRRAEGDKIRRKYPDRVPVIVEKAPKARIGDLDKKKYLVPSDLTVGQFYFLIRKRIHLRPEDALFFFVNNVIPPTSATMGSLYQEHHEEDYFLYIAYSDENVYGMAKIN

In the case of “GST-tagged Atg8a-WT (from UniProt Q9W2S2) K48A; Y49A”, the response in assay [1] was determined as 1.

On to “His-tagged GMAP (truncated form, 1-490 aa) F322A; V325A”, for which the response with GST-tagged Atg8a-WT amounted to 1.
